Drawing on PMC10144703, “Molecular Mechanism of Sirtuin 1 Inhibition by Human Immunodeficiency Virus 1 Tat Protein” (Life, 2023), this text covers inhibition of fl-Sirt1 in the FdL assay for 2 substances.

The target in the test is human full-length Sirt1 (human) (UniProt Q96EB6).
Chain of human full-length Sirt1 (human) (Q96EB6 whole entry): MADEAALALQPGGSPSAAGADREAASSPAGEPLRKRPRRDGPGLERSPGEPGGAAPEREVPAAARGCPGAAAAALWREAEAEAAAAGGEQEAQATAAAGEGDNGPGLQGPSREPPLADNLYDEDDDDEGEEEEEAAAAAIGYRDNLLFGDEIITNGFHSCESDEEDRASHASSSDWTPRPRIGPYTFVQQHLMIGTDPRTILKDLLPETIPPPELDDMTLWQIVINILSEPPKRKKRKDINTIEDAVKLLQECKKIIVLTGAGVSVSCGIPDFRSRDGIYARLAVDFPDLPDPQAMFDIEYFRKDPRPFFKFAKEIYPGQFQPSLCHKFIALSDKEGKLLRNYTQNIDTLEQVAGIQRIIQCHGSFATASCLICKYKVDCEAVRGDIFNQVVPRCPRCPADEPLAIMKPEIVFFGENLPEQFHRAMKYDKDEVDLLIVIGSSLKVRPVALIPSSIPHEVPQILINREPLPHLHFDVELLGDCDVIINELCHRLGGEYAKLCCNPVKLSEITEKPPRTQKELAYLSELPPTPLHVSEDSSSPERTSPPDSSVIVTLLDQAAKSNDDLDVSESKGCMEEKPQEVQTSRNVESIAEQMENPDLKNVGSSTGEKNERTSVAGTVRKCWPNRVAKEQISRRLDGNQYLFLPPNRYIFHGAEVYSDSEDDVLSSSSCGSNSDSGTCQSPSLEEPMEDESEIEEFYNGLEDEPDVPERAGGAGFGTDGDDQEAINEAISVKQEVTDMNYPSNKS

For the substance “Tat-Cys^−-(21–63) (from UniProt P12506 21-63) (domain or fragment)”, the inhibition of fl-Sirt1 in the FdL assay at 100 µM FdL-1; potency (IC50) came to 30 µM.
In turn, “Tat-Cys^−-(1–63) (from UniProt P12506 1-63) (domain or fragment)” gave an inhibition of fl-Sirt1 in the FdL assay at 100 µM FdL-1; IC50 of 10 µM.
